Results reported in patent US20160333063.

Target: endogenous tau of wild-type mouse primary cortical neurons, P10637
Sequence (P10637 other isoform, or with tags, fused parts or gaps): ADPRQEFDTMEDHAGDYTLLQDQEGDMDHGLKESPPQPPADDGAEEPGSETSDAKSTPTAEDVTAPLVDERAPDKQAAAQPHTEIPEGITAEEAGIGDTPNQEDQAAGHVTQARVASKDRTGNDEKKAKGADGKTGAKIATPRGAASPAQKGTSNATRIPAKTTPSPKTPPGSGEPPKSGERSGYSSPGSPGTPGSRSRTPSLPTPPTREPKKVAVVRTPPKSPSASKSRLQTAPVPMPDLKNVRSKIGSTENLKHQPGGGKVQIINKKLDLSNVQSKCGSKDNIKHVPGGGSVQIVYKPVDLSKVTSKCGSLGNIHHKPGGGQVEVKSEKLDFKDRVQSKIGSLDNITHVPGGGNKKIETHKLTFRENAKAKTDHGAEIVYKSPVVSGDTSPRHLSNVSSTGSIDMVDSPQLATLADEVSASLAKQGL

B1: caspase 3 (activated, cleaved caspase 3) of mouse primary cortical neurons (protein)
chain: SGIYLDSSYKMDYPEMGICIIINNKNFHKSTGMSSRSGTDVDAANLRETFMGLKYQVRNKNDLTREDILELMDSVSKEDHSKRSSFVCVILSHGDEGVIYGTNGPVELKKLTSFFRGDYCRSLTGKPKLFIIQACRGTELDCGIETDSGTDEEMACQKIPVEADFLYAYSTAPGYYSWRNSKDGSWFIQSLCSMLKLYAHKLEFMHILTRVNRKVATEFESFSLDSTFHAKKQIPCIVSMLTKELYFYH
tau cleaved at Asp421 (TauC3 western blot, TauC3 to total tau): did result in increased cleavage of tau as measured by TauC3 western blot
